Experimental data published in publication PMC8144572.

Target: truncated NpSRII/NpHtrII137 complex (Natronomonas pharaonis) (UniProt P42196)
Assay: SAXS; detergent-solubilised (DDM) complex, peak fractions after gel filtration; low salt (150 mM NaCl); 0.57 mg/ml full-length and 0.78 mg/ml truncated complex; BM29 (ESRF); curves fitted with atomistic dimer models with a detergent belt (MEMPROT, CRYSOL3)

Chain of truncated NpSRII/NpHtrII137 complex (P42196 whole entry, the tested form may be a part): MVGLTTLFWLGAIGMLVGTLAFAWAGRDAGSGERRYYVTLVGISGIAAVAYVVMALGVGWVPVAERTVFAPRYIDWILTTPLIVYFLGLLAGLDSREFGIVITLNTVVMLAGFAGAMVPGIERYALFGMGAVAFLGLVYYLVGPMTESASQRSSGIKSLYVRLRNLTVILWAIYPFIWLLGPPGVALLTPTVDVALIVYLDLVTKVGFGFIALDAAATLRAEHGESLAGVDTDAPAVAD
Chain of truncated NpSRII/NpHtrII137 complex (P42259 1-136): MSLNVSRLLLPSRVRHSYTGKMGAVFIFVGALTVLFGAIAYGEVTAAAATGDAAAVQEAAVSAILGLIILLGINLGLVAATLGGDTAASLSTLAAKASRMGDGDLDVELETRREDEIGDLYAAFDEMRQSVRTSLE

Substance: truncated NpSRII/NpHtrII137 complex (from UniProt P42196 1-239; P42259 1-136)
- stoichiometry N: 2
